Results reported in publication PMC10173203 (Science translational medicine, 2021).

Target: HA of A/Michigan/45/2015 H1N1 virus (Influenza A virus A/Michigan/45/2015 …, UniProt A0A1J0CXU0, strain)
Assay: ELISA

B1: 047–09 4B06 mAb (human IgG1) (antibody, V domains shown)
VH: EVQLLESGGGLVQPGGSLRLSCAASGFIFGHFAMTWVRQAPGKGLEWLSAISGGGLNTYYAESVKGRFTMSRDNSKNTLYLQMGSLRAEDAAVYYCARFDSSGYNYVRGMVVWGQGTAV
VL: DIQMTQSPSSLSVSIGDRITITCQASQDIKNYLGWYQHKPGKAPKLLIYHVSNLEAGVPSRFSGSGSGTDFTFTISSLQPEDIGTYYCHQCYNLPYTFGQGTKVEIK
binding result: binds
